Test results reported in PMC3753650.

Key:
[1] = biological target: T1, RNA polymerase sigma70 holoenzyme, molecular beacon derivative (Ec Esigma70 beacon) (Escherichia coli) (UniProt P0A7Z4+P0A7Z4+P0A8V2+P0A8T7+P0A800+P00579); test: RNAP beacon fluorescence; conditions: Equilibrium RNAP molecular beacon fluorescence, 25 C and 1 nM RNAP in competition assays, buffer, salt and pH not in material, Kd error 20% (>0.4 nM), ~50% …
[2] = biological target: T1, RNA polymerase sigma70 holoenzyme, molecular beacon derivative (Ec Esigma70 beacon) (Escherichia coli); test: competition; conditions: Equilibrium RNAP molecular beacon fluorescence; 25 C and 1 nM RNAP in competition assays; buffer, salt and pH not in material; Kd error 20% (>0.4 nM), ~50% …

## TATTTGACATCAGGAAAATTTTTCTGTTT / ACAGAAAAATTTTCCTGATGTCAAATA [probe 3(-11T)]
[1]
  binding signal (fold weaker than probe 3): 5

## TATTTGACATCAGGAAAATTTTTCTGTTTAA / ACAGAAAAATTTTCCTGATGTCAAATA [probe 5(-11T)]
[1]
  binding signal (fold weaker than probe 5): 200

## TATTTGACATCAGGAAAATTTTTCTGTTTAAT (double strand) [probe 23(-11T)]
[1]
  Kd: 16 nM

## TATTTGACATCAGGAAAATTTTTCTGTATAA / ACAGAAAAATTTTCCTGATGTCAAATA [probe 5]
[2]
  binding signal (fold tighter than probe 2): 50

## TATTTGACATCAGGAAAATTTTTCTGTTGTTA / ACAGAAAAATTTTCCTGATGTCAAATA [probe 11(-7A)]
[1]
  binding signal (fold weaker than probe 11): 2.4

## TATTTGACATCAGGAAAATTTTTCTGT (double strand) [probe 1]
[1]
  Kd: 62 nM

## AAAAAAAGAATTTGACATCAGGAAAATTTTTTGGTTGCT (double strand) [probe 25]
[1]
  Kd: 11 nM

## TATTTGACATCAGGAAAATTTTTCTGTT / ACAGAAAAATTTTCCTGATGTCAAATA [probe 2(-11T)]
[1]
  binding signal (fold weaker than probe 2): 5

## TATTTGCTTTCAGGAAAATTTTTCTGTATAAA / CAGAAAAATTTTCCTGAAAGCAAATA [probe 8(-7A)]
[1]
  binding signal (fold weaker than probe 8): 210

## TGGTTGACTTTTGCCAGATACTGAGGCTGGCT / GCCTCAGTATCTGGCAAAAGTCAACCA [probe 12]
[1]
  Kd: 11 nM

## TATTTGACATCAGGAAAATTTTTCTGTA / TTATACAGAAAAATTTTCCTGATGTCAAATA [probe 28]
[1]
  binding signal (fold tighter than probe 19): 5

## TATTTGACATCAGGAAAATTTTTCTGTTTAA (double strand) [probe 22(-11T)]
[1]
  Kd: 120 nM

## AAAAAAAGAATTTGACATCAGGAAAATTTTTTGGT / AGCAACCAAAAAATTTTCCTGATGTCAAATTCTTTTTTT [probe 27]
[1]
  Kd: < 0.1 nM

## AAAAAAAGAATTTGACATCAGGAAAATTTTTTGGTTGCT / ACCAAAAAATTTTCCTGATGTCAAATTCTTTTTTT [probe 26]
[1]
  Kd: < 0.1 nM

## GGAAAATTTTTTGGTTTAATAGA / ACCAAAAAATTTTCC [probe 9(-11T)]
[1]
  binding signal (fold weaker than probe 9): 300

## TATAATGGGTTCAT [probe 30]
[1]
  Kd: 73 nM

## TATTTGACATCAGGAAAATTTTTCTGTA / ATTATACAGAAAAATTTTCCTGATGTCAAATA [probe 29]
[1]
  binding signal (fold tighter than probe 19): 13

## TATTTGACATCAGGAAAATTTTTCTGTAGTTA / ACAGAAAAATTTTCCTGATGTCAAATA [probe 10(-7A)]
[1]
  binding signal (fold weaker than probe 10): 8

## TATTTGACATCAGGAAAATTTTTTGGAATAAT / TCCAAAAAATTTTCCTGATGTCAAATA [probe 18(-12A)]
[1]
  binding signal (fold tighter than 17(-12A)): 300

## TATTTGACATCAGGAAAATTTTTTGGAATAA / TCCAAAAAATTTTCCTGATGTCAAATA [probe 17(-12A)]
[1]; strongly weaker than probe 17
  binding signal (fold tighter than 16(-12A)): 6

## TATTTGACATCAGGAAAATTTTTCTGTTTAAA / ACAGAAAAATTTTCCTGATGTCAAATA [probe 6(-11T,-7A)]
[1]
  binding signal (fold weaker than probe 6(-11T)): 110

## AAAAAAAGAATTTGACATCAGGAAAATTTTTTGGT (double strand) [probe 24]
[1]
  Kd: 0.19 nM

## TGGTTGACTTTTGCCAGATACTGAGGCTGGC / GCCTCAGTATCTGGCAAAAGTCAACCA [probe 13]
[1]
  Kd: 100 nM

## GGAAAATTTTTTGGTATAAAAGA / ACCAAAAAATTTTCC [probe 9(-7A)]
[1]
  binding signal (fold weaker than probe 9): 710

## TATTTGACATCAGGAAAATTTTTTGGA (double strand) [probe 15(-12A)]
[1]
  binding signal (fold weaker than probe 15): 4

## TATTTGACATCAGGAAAATTTTTCTGTTTAAT / ACAGAAAAATTTTCCTGATGTCAAATA [probe 6(-11T)]
[1]; ~120-fold tighter than 5(-11T)
  binding signal (fold weaker than probe 6): 1000

## TATTTGACATCAGGAAAATTTTTCTGTATAA / CAGAAAAATTTTCCTGATGTCAAATA [probe 31]
[2]
  binding signal (fold weaker than probe 5): 10

## TGGTTGACTTTTGCCAGATACTGAGGCTGGCA / GCCTCAGTATCTGGCAAAAGTCAACCA [probe 12(-7A)]
[1]
  Kd: 100 nM
